± gives the standard deviation of the averaged measurements.
Assay: total protein half-life in vivo (active degradation + dilution); higher = more stable protein
[1] = E. coli NCM3722 delta-clpP delta-lon delta-hslV, growth: N-lim chemostat, doubling time 6 h
[2] = E. coli NCM3722 delta-clpP, growth: N-lim chemostat, doubling time 6 h
[3] = E. coli NCM3722 delta-hslV, growth: N-lim chemostat, doubling time 6 h
[4] = E. coli NCM3722 delta-lon, growth: N-lim chemostat, doubling time 6 h
[5] = E. coli NCM3722 delta-smpB, growth: N-lim chemostat, doubling time 6 h
[6] = wild type E. coli NCM3722, growth: C-lim chemostat, doubling time 3 h
[7] = wild type E. coli NCM3722, growth: C-lim chemostat, doubling time 6 h
[8] = wild type E. coli NCM3722, growth: C-lim chemostat, doubling time 12 h
[9] = wild type E. coli NCM3722, growth: N-lim chemostat, doubling time 6 h
[10] = wild type E. coli NCM3722, growth: N-lim chemostat, doubling time 12 h
[11] = wild type E. coli NCM3722, growth: P-lim chemostat, doubling time 6 h
[12] = wild type E. coli NCM3722, growth: P-lim chemostat, doubling time 12 h

| Sequence | total protein half-life in vivo [1] [h] | total protein half-life in vivo [2] [h] | total protein half-life in vivo [3] [h] | total protein half-life in vivo [4] [h] | total protein half-life in vivo [5] [h] | total protein half-life in vivo [6] [h] | total protein half-life in vivo [7] [h] | total protein half-life in vivo [8] [h] | total protein half-life in vivo [9] [h] | total protein half-life in vivo [10] [h] | total protein half-life in vivo [11] [h] | total protein half-life in vivo [12] [h] |
| --- | --- | --- | --- | --- | --- | --- | --- | --- | --- | --- | --- | --- |
| MQENISVTDSYSTGNAAQAMLEKLLQIYDVKTLVAQLNGVGENHWSAAILKRALANDSAWHRLSEKEFAHLQTLLPKPPAHHPHYAFRFIDLFAGIGGIRRGFESIGGQCVFTSEWNKHAVRTYKANHYCDPATHHFNEDIRDITLSHKEGVSDEAAAEHIRQHIPEHDVLLAGFPCQPFSLAGVSKKNSLGRAHGFACDTQGTLFFDVVRIIDARRPAMFVLENVKNLKSHDQGKTFRIIMQTLDELGYDVADAEDNGPDDPKIIDGKHFLPQHRERIVLVGFRRDLNLKADFTLRDISECFPAQRVTLAQLLDPMVEAKYILTPVLWKYLYRYAKKHQARGNGFGYGMVYPNNPQSVTRTLSARYYKDGAEILIDRGWDMATGEKDFDDPLNQQHRPRRLTPRECARLMGFEAPGEAKFRIPVSDTQAYRQFGNSVVVPVFAAVAKLLEPKIKQAVALRQQEAQHGRRSR [P0AED9] | 6.76 ± 1.5 | 5.15 ± 0.12 | 3.09 ± 0.34 | 2.96 ± 0.39 | 2.66 ± 0.11 | 2.31 ± 0.072 | 3.32 ± 0.18 | 6.06 ± 0.83 | 3.04 ± 0.39 | 3.94 ± 0.19 | 3.02 ± 0.45 | 5.98 ± 1 |
| MRFMQRSKDSLAKWLSAILPVVIVGLVGLFAVTVIRDYGRASEADRQALLEKGNVLIRALESGSRVGMGMRMHHVQQQALLEEMAGQPGVLWFAVTDAQGIIILHSDPDKVGRALYSPDEMQKLKPEENSRWRLLGKTETTPALEVYRLFQPMSAPWRHGMHNMPRCNGKAVPQVDAQQAIFIAVDASDLVATQSGEKRNTLIILFALATVLLASVLSFFWYRRYLRSRQLLQDEMKRKEKLVALGHLAAGVAHEIRNPLSSIKGLAKYFAERAPAGGEAHQLAQVMAKEADRLNRVVSELLELVKPTHLALQAVDLNTLINHSLQLVSQDANSREIQLRFTANDTLPEIQADPDRLTQVLLNLYLNAIQAIGQHGVISVTASESGAGVKISVTDSGKGIAADQLDAIFTPYFTTKAEGTGLGLAVVHNIVEQHGGTIQVASQEGKGSTFTLWLPVNITRKDPQG | 5.89 |  | 6.11 ± 0.45 |  | 5.27 ± 0.29 | 3.57 ± 0.24 | 4.91 | 13.4 ± 2.7 | 5.12 | 14.1 |  | 11.4 ± 0.38 |
| MSVQQIDWDLALIQKYNYSGPRYTSYPTALEFSEDFGEQAFLQAVARYPERPLSLYVHIPFCHKLCYFCGCNKIVTRQQHKADQYLDALEQEIVHRAPLFAGRHVSQLHWGGGTPTYLNKAQISRLMKLLRENFQFNADAEISIEVDPREIELDVLDHLRAEGFNRLSMGVQDFNKEVQRLVNREQDEEFIFALLNHAREIGFTSTNIDLIYGLPKQTPESFAFTLKRVAELNPDRLSVFNYAHLPTIFAAQRKIKDADLPSPQQKLDILQETIAFLTQSGYQFIGMDHFARPDDELAVAQREGVLHRNFQGYTTQGDTDLLGMGVSAISMIGDCYAQNQKELKQYYQQVDEQGNALWRGIALTRDDCIRRDVIKSLICNFRLDYAPIEKQWDLHFADYFAEDLKLLAPLAKDGLVDVDEKGIQVTAKGRLLIRNICMCFDTYLRQKARMQQFSRVI | 4.79 ± 0.99 | 3.9 ± 0.13 | 3.36 ± 0.42 | 3.22 ± 0.1 | 2.98 ± 0.056 | 2.55 ± 0.33 | 4.23 ± 0.08 | 6.14 ± 0.71 | 2.99 ± 0.12 | 4.64 ± 0.16 | 4.23 ± 0.068 | 7.23 ± 0.7 |
| MNSLFASTARGLEELLKTELENLGAVECQVVQGGVHFKGDTRLVYQSLMWSRLASRIMLPLGECKVYSDLDLYLGVQAINWTEMFNPGATFAVHFSGLNDTIRNSQYGAMKVKDAIVDAFTRKNLPRPNVDRDAPDIRVNVWLHKETASIALDLSGDGLHLRGYRDRAGIAPIKETLAAAIVMRSGWQPGTPLLDPMCGSGTLLIEAAMLATDRAPGLHRGRWGFSGWAQHDEAIWQEVKAEAQTRARKGLAEYSSHFYGSDSDARVIQRARTNARLAGIGELITFEVKDVAQLTNPLPKGPYGTVLSNPPYGERLDSEPALIALHSLLGRIMKNQFGGWNLSLFSASPDLLSCLQLRADKQYKAKNGPLDCVQKNYHVAESTPDSKPAMVAEDYTNRLRKNLKKFEKWARQEGIECYRLYDADLPEYNVAVDRYADWVVVQEYAPPKTIDAHKARQRLFDIIAATISVLGIAPNKLVLKTRERQKGKNQYQKLGEKGEFLEVTEYNAHLWVNLTDYLDTGLFLDHRIARRMLGQMSKGKDFLNLFSYTGSATVHAGLGGARSTTTVDMSRTYLEWAERNLRLNGLTGRAHRLIQADCLAWLREANEQFDLIFIDPPTFSNSKRMEDAFDVQRDHLALMKDLKRLLRAGGTIMFSNNKRGFRMDLDGLAKLGLKAQEITQKTLSQDFARNRQIHNCWLITAA | 5.837 ± 0.045 | 6.06 ± 0.79 | 5.92 ± 0.34 | 6.466 ± 0.03 | 5.37 ± 0.12 | 3.13 ± 0.17 | 6.101 ± 0.011 | 10.4 ± 0.11 | 5.428 ± 0.015 | 10.47 ± 0.039 | 6.129 ± 0.044 | 13.1 ± 1.5 |
| MITHNFNTLDLLTSPVWIVSPFEEQLIYANSAAKLLMQDLTFSQLRTGPYSVSSQKELPKYLSDLQNQHDIIEILTVQRKEEETALSCRLVLRKLTETEPVIIFEGIEAPATLGLKASRSANYQRKKQGFYARFFLTNSAPMLLIDPSRDGQIVDANLAALNFYGYNHETMCQKHTWEINMLGRRVMPIMHEISHLPGGHKPLNFVHKLADGSTRHVQTYAGPIEIYGDKLMLCIVHDITEQKRLEEQLEHAAHHDAMTGLLNRRQFYHITEPGQMQHLAIAQDYSLLLIDTDRFKHINDLYGHSKGDEVLCALARTLESCARKGDLVFRWGGEEFVLLLPRTPLDTALSLAETIRVSVAKVSISGLPRFTVSIGVAHHEGNESIDELFKRVDDALYRAKNDGRNRVLAA | 6.16 | 1.51 |  |  |  | 0.79 ± 0.18 | 1.87 ± 0.062 | 1.42 ± 0.21 | 1.31 |  |  |  |
| MKKLVLAALLASFTFGASAAEKINFGVSATYPPFESIGANNEIVGFDIDLAKALCKQMQAECTFTNHAFDSLIPSLKFRKYDAVISGMDITPERSKQVSFTTPYYENSAVVIAKKDTYKTFADLKGKRIGMENGTTHQKYIQDQHPEVKTVSYDSYQNAFIDLKNGRIDGVFGDTAVVNEWLKTNPQLGVATEKVTDPQYFGTGLGIAVRPDNKALLEKLNNALAAIKADGTYQKISDQWFPQ | 4.29 ± 0.69 | 5.1 ± 0.92 | 5.91 ± 0.093 | 6.25 ± 0.23 | 5.73 ± 0.62 | 2.99 ± 0.12 | 6.13 ± 0.83 | 9.32 ± 1.2 | 5.47 ± 0.24 | 11.9 ± 0.32 | 5.3886 ± 0.0029 | 11 ± 1.2 |
